Test results taken from patent publication US20180185504A1 (Regeneron, published 2018).

T1: mouse PRLR construct with an HA tag on HEK293/mPRLR cells (mouse, UniProt Q08501 20-608)
T1 construct: whole, on cells; stably transfected into HEK293
T1 sequence (looked up): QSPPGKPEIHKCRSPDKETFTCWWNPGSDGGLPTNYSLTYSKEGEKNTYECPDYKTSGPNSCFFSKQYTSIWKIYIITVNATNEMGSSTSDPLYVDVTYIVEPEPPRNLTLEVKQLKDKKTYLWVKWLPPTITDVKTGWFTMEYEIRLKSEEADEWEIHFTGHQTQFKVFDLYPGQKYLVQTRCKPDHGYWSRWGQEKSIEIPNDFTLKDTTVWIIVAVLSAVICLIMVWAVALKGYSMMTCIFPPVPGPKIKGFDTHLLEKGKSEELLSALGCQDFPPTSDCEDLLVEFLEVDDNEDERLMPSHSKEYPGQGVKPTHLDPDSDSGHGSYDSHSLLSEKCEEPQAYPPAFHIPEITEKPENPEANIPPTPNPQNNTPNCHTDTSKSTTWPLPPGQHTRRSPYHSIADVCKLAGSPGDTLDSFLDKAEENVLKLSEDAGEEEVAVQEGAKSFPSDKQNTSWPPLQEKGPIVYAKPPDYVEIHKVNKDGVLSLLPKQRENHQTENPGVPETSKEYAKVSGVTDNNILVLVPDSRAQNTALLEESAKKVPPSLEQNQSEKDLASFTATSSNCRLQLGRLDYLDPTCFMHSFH

T2: mfPRLR.mmh (soluble monomeric macaca fascicularis PRLR) (macaca fascicularis)
T2 construct: soluble monomeric PRLR protein; also called macaca fascicularis (mf) PRLR.mmh; monkey PRLR
T2 chain: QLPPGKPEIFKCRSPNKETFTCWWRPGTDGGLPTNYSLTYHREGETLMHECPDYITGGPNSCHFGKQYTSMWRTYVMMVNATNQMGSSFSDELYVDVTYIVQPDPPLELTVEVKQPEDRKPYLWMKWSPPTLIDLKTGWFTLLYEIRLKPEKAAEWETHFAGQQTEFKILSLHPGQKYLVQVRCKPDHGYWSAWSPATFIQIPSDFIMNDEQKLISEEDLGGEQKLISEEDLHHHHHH

T3: hPRLR.mFc (soluble dimeric human PRLR) (human)
T3 construct: dimeric PRLR construct
T3 chain: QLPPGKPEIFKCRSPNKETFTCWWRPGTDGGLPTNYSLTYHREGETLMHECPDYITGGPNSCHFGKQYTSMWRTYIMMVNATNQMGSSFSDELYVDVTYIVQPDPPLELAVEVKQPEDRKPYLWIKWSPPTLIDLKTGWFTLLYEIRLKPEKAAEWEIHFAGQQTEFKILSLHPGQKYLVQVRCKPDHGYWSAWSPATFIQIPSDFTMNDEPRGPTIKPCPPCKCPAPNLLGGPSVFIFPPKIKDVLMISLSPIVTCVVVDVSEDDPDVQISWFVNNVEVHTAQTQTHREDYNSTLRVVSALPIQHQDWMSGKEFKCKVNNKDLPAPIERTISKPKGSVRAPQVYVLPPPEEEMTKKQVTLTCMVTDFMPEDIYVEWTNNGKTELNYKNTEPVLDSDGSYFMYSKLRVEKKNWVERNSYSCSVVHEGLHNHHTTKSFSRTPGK

T4: hPRLR.mmh (soluble monomeric human PRLR) (human)
T4 construct: soluble monomeric PRLR protein
T4 chain: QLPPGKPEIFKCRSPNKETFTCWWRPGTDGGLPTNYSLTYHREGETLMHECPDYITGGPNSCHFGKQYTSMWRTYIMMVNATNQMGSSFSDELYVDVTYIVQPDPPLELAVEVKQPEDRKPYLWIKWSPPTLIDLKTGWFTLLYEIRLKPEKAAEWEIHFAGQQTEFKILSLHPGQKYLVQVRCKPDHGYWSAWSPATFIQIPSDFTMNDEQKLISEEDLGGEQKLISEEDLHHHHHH

T5: human PRLR on cells (endogenous on T47D, T47D#11, MCF7); introduced in HEK293/hPRLR/STAT5-Luc, 293/hPRLR, … (human, UniProt P16471 25-622)
T5 construct: no tag is stated for these lines; also called prolactin receptor
T5 sequence: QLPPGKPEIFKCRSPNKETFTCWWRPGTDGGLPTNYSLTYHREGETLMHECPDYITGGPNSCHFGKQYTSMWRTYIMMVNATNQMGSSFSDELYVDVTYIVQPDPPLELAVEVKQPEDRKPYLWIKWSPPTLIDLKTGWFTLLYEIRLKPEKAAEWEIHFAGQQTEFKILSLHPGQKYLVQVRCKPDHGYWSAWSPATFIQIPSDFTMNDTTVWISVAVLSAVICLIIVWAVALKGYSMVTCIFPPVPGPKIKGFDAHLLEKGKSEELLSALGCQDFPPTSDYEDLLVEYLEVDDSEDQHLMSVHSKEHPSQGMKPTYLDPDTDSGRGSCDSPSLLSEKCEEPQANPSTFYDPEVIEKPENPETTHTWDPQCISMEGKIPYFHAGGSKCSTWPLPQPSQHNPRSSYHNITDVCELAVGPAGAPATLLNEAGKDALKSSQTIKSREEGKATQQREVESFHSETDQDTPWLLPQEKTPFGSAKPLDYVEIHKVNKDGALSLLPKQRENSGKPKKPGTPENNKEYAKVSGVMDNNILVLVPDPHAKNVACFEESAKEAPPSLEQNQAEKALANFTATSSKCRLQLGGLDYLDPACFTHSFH


Key:
[1] = target: T1, mouse PRLR construct with an HA tag on …; test: FACS on HEK293/mPRLR cells
[2] = target: T2, mfPRLR.mmh (soluble monomeric macaca …); test: SPR (Biacore), antibody capture, 37 C
Method: (§1) Measurements were conducted on a T200 Biacore instrument. Kinetic association (kₐ) and dissociation (kd) rate constants were determined by processing and fitting the data to a 1:1 binding model using Scrubber 2.0 curve fitting software.

[3] = target: T3, hPRLR.mFc (soluble dimeric human PRLR); test: SPR (Biacore), antibody capture, 37 C
Method: as §1

[4] = target: T4, hPRLR.mmh (soluble monomeric human PRLR); test: SPR (Biacore), antibody capture, 37 C
Method: as §1

[5] = target: T5, human PRLR on cells (endogenous on …); test: FACS on T47D cells

| Binder | FACS Cell Binding (Fold Above Background) [1] [fold] | Kd [2] [nM] | T 1/2 [2] [min] | koff [2] [s⁻¹] | kon [2] [M⁻¹ s⁻¹] | Kd [3] [nM] | T 1/2 [3] [min] | koff [3] [s⁻¹] | kon [3] [M⁻¹ s⁻¹] | Kd [4] [nM] | T 1/2 [4] [min] | koff [4] [s⁻¹] | kon [4] [M⁻¹ s⁻¹] | FACS Cell Binding (Fold Above Background) [5] [fold] |
| --- | --- | --- | --- | --- | --- | --- | --- | --- | --- | --- | --- | --- | --- | --- |
| H1H6976N (antibody, human IgG1, V domains shown, also called H2M6976N) VH: EVQLLESGGGFVQPGGSLRLSCAASGFTFSSYAMSWVRQAPGKGLEWVSIISSNGRYTYYADSVKGRFTISRDNSKNTLYLQMNSLRAEDTAVYYCATVTGDWFDPWGQGTLVTVSS VL: DIQLTQSPSFLSASVGDRVTITCWASQDIDISLAWYQQKPGKAPKLLIYAASTLQSGVPSKFSGSGSGTDFTLTISSLQPEDFSTYYCQQLNSYPITFGQGTRLDIK | 1 | 5.24 | 3.7 | 0.00316 | 603000 | 0.102 | 82.6 | 0.00014 | 1.37e+06 | 4.04 | 3.7 | 0.00314 | 777000 | 37 |
| H1H6785P (antibody, human IgG1, V domains shown, human IgG1 Fc (H1H)) VH: EVQLVESGGGLVQPGGSLRLSCAASGFTFSSYEMNWVRQAPGKGLEWISYISSRGGTIYYADSIKGRFTIYRDNARNSLYLQMNSLRAEDTAIYYCARLSGVDIFDIWGQGTMVTVSS VL: DIQMTQSPSSLSASVGDRVTITCRASQGISNYLAWYQQKPGKVPKLLIYFASTLQSGVPSRFSGGGSGTDFTLTISSLQPEDVATYYCQRYNSAPLTFGGGTKVEIK | 2 | 1.52 | 26 | 0.00045 | 297000 | 0.256 | 99 | 0.000117 | 456000 | 1.14 | 24 | 0.000484 | 426000 | 40 |
| H1H6958N2 (antibody, human IgG1, V domains shown, also called H2M6958N2) VH: QVQLVESGGGVVQPGRSLRLSCGASGFTFRNYGMQWVRQGPGKGLEWVTLISFDGNDKYYADSVKGRFTISRDNSKNTLFLQMNSLRTEDTAVYYCARGGDFDYWGQGTLVTVSS VL: DIQMTQSPSSLSASVGDRVTITCRASQDIRKDLGWYQQKPGKAPKRLIYAASSLHSGVPSRFSGSGSGTEFTLTISSLQPEDFATYYCLQHNSYPMYTFGQGTKLEIK | 1 | 4.08 | 8.6 | 0.00134 | 328000 | 0.167 | 83.3 | 0.000139 | 829000 | 3.16 | 8.8 | 0.00131 | 413000 | 37 |
| H1H6967N (antibody, human IgG1, V domains shown, also called H2M6967N) VH: EVQLVESGGDLVHPGRSLRLSCAASGFPFDEYAMHWVRQVPGKGLEWVSGISWSNNNIGYADSVKGRFTISRDNAKNSLYLQMNSLRPEDTAFYYCAKSGIFDSWGQGTLVTVSS VL: EIVMTQSPATLSVSPGERATLSCRASQSVSRDLAWYQQKPGQAPRLLIHGASTRATGIPARFSGSGSGAEFTLIISSLQSEDFAVYYCQQYNNWPLTFGGGTKVEIK | 2 | 4.54 | 7.1 | 0.00162 | 356000 | 0.107 | 119 | 9.73e-05 | 907000 | 2.2 | 12.4 | 0.000933 | 424000 | 41 |
| H1H6781P (antibody, human IgG1, V domains shown, human IgG1 Fc (H1H)) VH: EVQLVESGGDLVQPGESLRLSCTASGFTFNSYEMNWVRQAPGKGLEWVSYISSSGGTKYYVDSVKGRFTISRDNAKKSLYLQMNSLRADDTALYYCARLNGVDVFDIWGQGTMVTVSS VL: DIQMTQSPSSLSASVGDRVTITCRASQDIFNYLAWFQQKPGKVPELLISAASTLQSGVPSRFSGSGSGTYFTLTISSLQPEDIATYYCQRYNSAPLTFGGGTKVEIK | 1 | 1.08 | 43 | 0.000267 | 247000 | 0.226 | 117 | 9.84e-05 | 436000 | 0.91 | 37 | 0.000309 | 339000 | 40 |
| H1H6774P (antibody, human IgG1, V domains shown, human IgG1 Fc (H1H)) VH: EVQLVESGGGLAQPGGSLRLSCVASGFTFSTYWMSWVRQAPGKGLDWVGNIKQDGSEQNYVDSVRGRFTISRDNAKNSLFLQMNSLRAEDTGVYYCATLLTKGDYWGQGTLVTVSS VL: DIQMTQSPSSLSASVGDSVTITCRASQDISNYLDWFQQKPGKAPKSLIYAASILQGGVPSRFSGSGYGTDFTLTISSLQPEDFATYYCRQYKTYPFTFGPGTKVDIK | 1 | 5 | 3 | 0.00361 | 723000 | 0.138 | 60 | 0.000194 | 1.41e+06 | 2.95 | 4 | 0.00317 | 1.07e+06 | 39 |
| H1H6783P (antibody, human IgG1, V domains shown, human IgG1 Fc (H1H)) VH: QVQLQQSGPGLVKPSQTLSLTCAISGDSVSSNTFAWNWIRQSPSRGLEWLGRTYYRSKWYIDYAESVKSRITITPDTSKNQFSLQLNSVTPEDTALYYCAGGYTYAPRGAFDIWGQGTMVTVSS VL: not shown | 1 | 4.74 | 9 | 0.0013 | 273000 | 0.282 | 83 | 0.000138 | 491000 | 3.91 | 7 | 0.00161 | 411000 | 38 |
| H1H6792P (antibody, human IgG1, V domains shown, human IgG1 Fc (H1H)) VH: EVQLVESGGGLVQPGRSLRLSCAASGFTLDDHAVHWVRQAPGKGLEWVSGISWNSVYIDYADSVKGRFTIFRDNAKNSLYLQMNSLRAEDTAFYYCARDIEGARDYWGQGTLVTVSS VL: DIQMTQSPSSLSASVGDRVTITCRASQGIRNDLGWYQQKPGKAPKRLIYAASSLQSGVPSRFSGSGYGTEFTLTISSLQPEDFAPYYCLQHNSYPLTFGGGTKVEIK | 3 | 9.37 | 4 | 0.00286 | 305000 | 0.352 | 66 | 0.000176 | 499000 | 5.27 | 5 | 0.00229 | 435000 | 37 |
